This data set has as its system MS2 coat protein. Nature of the data set: apparent KD of MS2 coat protein; designed switch direction (-1 OFF switch, 1 ON switch): -1; higher = weaker reporter binding. The following applies: Eterna round: R98. As for the experimental part:
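RNA-MaP: designed FMN/MS2 RNA switches (84 nt design region) are transcribed on-chip within common flanks and titrated with SNAP-549-labelled MS2 coat protein (about 1-3000 nM) in 100 mM Tris pH 7.5, 80 mM KCl, 4 mM MgCl2, without or with 200 uM FMN. Median apparent KD per design; activation ratio = KD,OFF / KD,ON.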

For “UCAUACAUGAGGAUCUCCCAUGACAUGAGGAUCACCCAUGUGCAGGAUAUACGUGAUAUAAUAUAGUAGAAGGGCAGACUAUAU [LRO008_Exclusion NG 3]”, the “apparent KD of MS2 coat protein” value by setting is: (input ligand: FMN 200 uM) 192 nM; (input ligand: none) 157 nM.
The corresponding values for “UGUUGUUACGCAGGAUAUUGCCAACAGGCAGUAGGAUAUCCGAAAGGAGAAGGACCGCCAACAGGCGAGAAGGGCGGGUUAACA [pwkr exNG2 2xF7 2FMN.10 scored 83]” are 35 nM and 57.9 nM.
On the same counts, the results for “UUCUGUGCCCAAAGUUUAAGCACAUGAGGAUCACCCAUGUGAAAGGAUAUGUGGCGUGUAACGUUAUAGAAGGUUCACAAUAAA [Edorcetila]” are 74.9 nM and 33.1 nM.

(Values after the supplement of paper PMC9170038.)
